Test results as given in PMC2912450.

Target: His-tagged FliK (Salmonella) (UniProt P26416)
Test: SPR

Substance	Kd [µM]
FlhBc(N269A) (domain or fragment)	10.5
FlhBc(P270A) (domain or fragment)	1.6
